# Measurements published in PMC8173049 (2021).
# B1: human lactoferrin (natural protein)
# chain: GRRRSVQWCAVSQPEATKCFQWQRNMRKVRGPPVSCIKRDSPIQCIQAIAENRADAVTLDGGFIYEAGLAPYKLRPVAAEVYGTERQPRTHYYAVAVVKKGGSFQLNELQGLKSCHTGLRRTAGWNVPIGTLRPFLNWTGPPEPIEAAVARFFSASCVPGADKGQFPNLCRLCAGTGENKCAFSSQEPYFSYSGAFKCLRDGAGDVAFIRESTVFEDLSDEAERDEYELLCPDNTRKPVDKFKDCHLARVPSHAVVARSVNGKEDAIWNLLRQAQEKFGKDKSPKFQLFGSPSGQKDLLFKDSAIGFSRVPPRIDSGLYLGSGYFTAIQNLRKSEEEVAARRARVVWCAVGEQELRKCNQWSGLSEGSVTCSSASTTEDCIALVLKGEADAMSLDGGYVYTAGKCGLVPVLAENYKSQQSSDPDPNCVDRPVEGYLAVAVVRRSDTSLTWNSVKGKKSCHTAVDRTAGWNIPMGLLFNQTGSCKFDEYFSQSCAPGSDPRSNLCALCIGDEQGENKCVPNSNERYYGYTGAFRCLAENAGDVAFVKDVTVLQNTDGNNNEAWAKDLKLADFALLCLDGKRKPVTEARSCHLAMAPNHAVVSRMDKVERLKQVLLHQQAKFGRNGSDCPDKFCLFQSETKNLLFNDNTECLARLHGKTTYEKYLGPQYVAGITNLKKCSTSPLLEACEFLRK
# Target: HAdV-D26 capsid (replication-defective, E1-deleted vector particle with a GFP-luciferase fusion expression … (human adenovirus D26))
# Assay: SPR
binder,measurement,value
B1,Kd,2.55 µM
